Consider ten sequences from the DeepSol protein solubility set.

The series can be described thus: soluble on expression in E. coli; label from the status in PepcDB or PDB records.
On to “MAHHHHHHMSFVVIRLLEVLPTQVRTQLTANAEYVVSVSSAQRLSTFCSQGPYAATRLQLSDFDGAARLWEPQWNVVEALPATKEVHDVSRVCAVYRGNSGVTAFAFIDEHGTVLATTRWVDCALSTVSGRERAVLQAAQLRKLFTQCRPTVMAIGASSIACLPLLRTLETFLREQVHQSAVVDVPVVWASVEVPRYYSVTTYARLELPQTENIVVTSVALARYVQDPLQVLCSLFEGEQTALQLCRTIRISASHDRQLYQASGVGDEPVGGGGGPVGRRYCVPPQHCRDAAVCSRPRPRQSACVGQCHPSLRRSAKSTASGAASGTLRGRHRAERRAGAARSLAGAMRRGAPVAPSRCNADPVAVVRDRLFGGKGDCLLIDAAGRSVASRAAWNGAGGAPGCTLPRRRAFYGCQGQGECGGPGRRGSS”, for which the “soluble on expression in E. coli” value is on record as “not soluble”.

As for “MAHHHHHHMSISIRSTAQRQLARRQPPTTSSSSVSLPRAAFAPASRSASAVEATSESASSSQVPEQQEATPTRILDNARSSSCAAAPPPFSASSDQRSDQINKCIHDTSTLTSKPPPSASSASSRGAAAPSLPPSAPSSTTGAPRSGHDAEPEGLHDAASSTAAPSGAGSSAVANSQRTAASHSLLYSVSRFTEPVKRIILIRNGRSEANEDVRAYVQTPDWRIPLVEEGKREAIAAGRALSELIGDGPVYFYYSPYIRSRQSLRYVLQGFDEARLSGLSHSREWWEDEETAAVASAAAAAESSTLKCATASADEAGSPPLLAPAPSAISTNATSSDAQCCFHRDPSLVLNRGTSNNIIGVREDVRLRDGDIGRYTSADELMHHLVERERYGRFFYRFPFGESGADVCDRVTSFLDAFQRERVEFPMDTSVVIITHGLTMRMLIKRWFYLTVETFHKMKSPPPGSLCTLTRLHHRSCFRLDECCVESMNLPLSLNEFNGYKYRNKQLLGSMSSGAPYM”, the “soluble on expression in E. coli” value is on record as “not soluble”.

Take “MAHHHHHHMSLAPNTGSVELKAYSAHASLLLARGERIDKRAFDECRLPAIVREERVGGATVAGAGDGSPQSSASSNMTSTYTVLDGKSLAAVMYTDAYGTCIQCTVQGLLGPPRPEQPAAGRLNVHVEAPFVEHLSGGATSTNYRSFQYMIASGNADLPLRQLEGYIGTVLDGCFDLSQLSIYAGEACWVLKVSVLLLSVDGGLRAGSLHAALAALHKLHLPRIRLPNGDVIEGRQVQLSCMPVACTFGFLAGAQVRLVADTTAIEEHVADGLITVVVDEAERILSVHHTGRCPLLAQALTAAAQQWAAASGSMRKALYG”: the “soluble on expression in E. coli” value was “not soluble”.

As to “MAHHHHHHMSLKAKLDVYPVENYTQTSVDVSNGHAGVAGNKVNLGAGSAAPFRPPSAIEKLLSLKKRCEEEPCVHSVEGVLLVHLHRHPHILLMKQINSRTRDADGMRTVPPSNTNAEVTYRLPGGRCRRGEAEESCLLRKLGRHLLNEAKTPAGAAEVASTGNSDTVVDVGMTHTASKAGSCFRVGEVLATWYRPHFTPHMYPYVPAHIAAGSVREVRTIYLVHLEPTVYFTMVQESVELVAAPLFDLYENSSKYGPIVASLPVLLSRVLINYCSTEY”, the “soluble on expression in E. coli” value is recorded as “not soluble”.

For “MAHHHHHHMSMHSVEGALCSCSMCKLTCHTASVYANQRRASKHVMLARPSPFYAETGGLPPEVPQLAPPPERLVVCPVFEEYGFCPFGRICFLPHSGEKTPLVERKGTSREELERLREKARLQEEEELWSCDVCGFDGIDENTQGRVGEMYYYRNCPRCSLMCYFPHIAYLVDAIFDASGDDYQIFKDEIDRCRRELPDILKVPLTYEAHRIASTAFAWSLVSPKHVKDALDAAYRALPEMSCIVSVGSGVGYVEHIFNRVANGVPAAPRDPDPALGISSFEGVHACFYPKKKLPIYAFDEVALNCPYSVCVSLGGPVALLSLQCPTSVLLLSWPPFGSPKEEQSSMAFEALEYFTQAGGKVVIYIGDVASTGDWRFHELLYTHYKLVKDYTVRREVRRWSPQDMGLVYAGNDTIGVYKLRSERLPSPQWQWDGRSS”, the “soluble on expression in E. coli” value is recorded as “not soluble”.

On to “MAHHHHHHMSSGRRDIIFFGSIAVSILGHEVHDEAVAPQLERQNARIKLHTTARAPYAKTEEVFGLDATSPLYEIHSADFKASPTSSLTPQRGAPHPRHHRQKAAFLPVMLKLAQDAAVEEVPSIEDQDGALLQLDSPTNNVDPAPSYASASVRIEVDMSRSGGDATPVGTKEVFLPSLNYLAIRDMCTVVRIPVWSNTIQRSETGDVDVAELDRRSPQPQRAGDDNSSSSSGVLGGVRDRNSRGDAVSGVALSVYAMVRVISLAEKVRLALEADDAVRCLLGLPDPVPGVSLALTQRGDAPYGAMPLTELYKHHRQFFGYYSNTIIKHSNVVTQRLAEAPRQREADASFPHRWNTLTVVDLRPALLGEDAFAPLLVTLAYCANLRALYADGNHLGDLTCARLSALFRRHRYLARVSLSKNTIHEAGGEHLLRLVRNNLRITSMPCQGNYFSDALRSRIEEVARRNASVIAQDPLNIFSASYDYLTDLSSLPNSLQQQGLRTWAMLSAAPVGDVDVMVRNFTTSTQRTLGDSPVVAMQRAKTALRARESFSLIPPAALAPFLNEIMRTVSVGVSRVLPDPLVRSLFSDMETVVAREQEQVEAQRRDELAGGSRDASLLPPEVCDAVGGAYTPPVDSETMYARSFVRIVVAALRGVALGTPWAEIAKVLEGIGRVHRDLGVMPEDYWLAVHIFMTSLRISCGAECYDADSASSFLGLLALAVRTAVGTDTVLQ”, for which the “soluble on expression in E. coli” value is “not soluble”.

As to “MAHHHHHHMSSSEKKHAAWVDVVAGGFGGALAKSLLSPFQRIVVLQQLGQHKSYSIAQLVHHIYAQEGLKSFWRGNLTSMVIRVPYSGIQFLLYTQLKFLFQDWLDRRHAAAALPTHQADGSSDNS”, the “soluble on expression in E. coli” value is reported as “soluble”.

As for “MAHHHHHHMSSSSSGQYSGSGGNRGSGFVHLNTPASIQYTAGKTLSLSALRQSKSRVECAVLPESMSVWRDAFQRYSKEEGYSSFAADIEDERTGNGPILPPLVPQRAGPVRRRAGRALVRTDAFFCASSSPAPLGTSASTAHTGADRPPLTDGAAAISSTATAASASSSSRLSDKGTTATSADSVADGSTGPTAKQQQEGIPIVSHHKLLGRQQFVYPDYDGVLSAGVVPQIVVTAEEEAEEAAAKAFYISPLTMTEEELAAFEELQGLWKSRARSHSFLGAQHRKAAKGAVDPSSSADVLEAGGAGLPKVRRCEGVTGGASLSARRGNEIDVPAYAEAETAVEEESKLDKELSEALRMADDLLRFA”, the “soluble on expression in E. coli” value is given as “not soluble”.

Regarding “MAHHHHHHMSSVKITLFQGKFRLDRLLGKGGFGEVYAGVQVSTGEPVAVKLERNKGRCFLFHEARVMQDIQNSMPGRTTPGIPELKYFGQEGDFRILIMSLLGPSLEDLHAKLGRFSLKTTVMLADEMLSRLEFIHSVGYIHRDLKPDNYLLGVGRNVRHLYLIDLGLSVRYRSTNGEHREMATGKSFVGTSRYASLRTHKGFSQSRRDDMEQLSYILIYLYRGHLPWSGLRMKDREAKEKAIGEIKQKLTTAQICSKCPSQFEDLLNYSRKLEFAESPQYEMCRILIASVLDTIGPNVKHDFQYDWVNVRKRDNSPPPPPPCIVTHERRATENKINLKKGNENGEKDAATIGSKIFCFFPGLSSSASQEMVLVNEK”, the “soluble on expression in E. coli” value was “not soluble”.

Consider “MAHHHHHHMTDEKKEEWIRRPYTRSIPVKLRSLAQLEESTVDATTQWYELLEQLVTETDVKGILQQTTKRKAARKLEELASQLRAVMQEMTAQSGRVVREGVDTQSFEQFCAWAGSTPSLQTTEASNGCTQMDKLCARVCMLCLCVAVILNDLELLICGMSFAESHKLLETYSRECEQRSVRQSNSIPDSGMEKGKNSEDVVLCSTVAHTLICGNDHNTFVPLADGDVLLACTLLYYLYTQDGPSASKSVMILERVLHCAEEVGYTSDVLDETGGYRIDFFYTISRMANWVETDNCPRLYQRIAHGFHGGSEVLVPFPPFVFLFTQVMLHMVVRRRLVEMQLQNVWRPVVTMDAAPVGCDGTAAETCSHVHPTVSSTSLCSAHGSKFFAVCLMLQRDCLSQYRSWPLPMELQKSFFC”, for which the “soluble on expression in E. coli” value is listed as “not soluble”.
